Experimental findings from patent US20240383974A1 (BETTA PHARMACEUTICALS, published 2024) are described below.

Residue numbers refer to the chain shown, from its start. Some results are limits rather than exact numbers.

B1: antibody m202-hu (antibody, V domains shown)
VH: QVQLVQSGAEVKKPGASVKVSCKASGYTFTSYWMHWVKQAPGQGLEWIGNINPSNGDTNYNEKFKSKATLTVDKSTSTAYMELRSLRSDDTAVYYCARATYGSYGYFDVWGQGTLVTVSS
VL: DIVLTQSPDSLAVSLGERATINCRASESVTIIGTNLIQWFQQKPGQPPKLLIYHASNLETGVPDRFSGSGSRTDFTLTISSLQAEDVAVYYCLQSRQIPRTFGGGTKVEIK
notes: Humanized m202
B2: antibody m301-hu (antibody, V domains shown)
VH: QVQLQESGPGLVKPSGTLSLTCAVSGFSLTTYGVTWVRQPPGKGLEWIGLIWGDGTTDYHSTFISRLTISKDKSKNQVSLKLSSVTAADTAVYYCASYYFAMHYWGQGTLVTVSS
VL: DIVMTQSPDSLAVSLGERATINCKSSQSLLNSRTQKNYLAWYQQKPGQSPKLLIYWASTRESGVPDRFSGSGSGTDFTLTISSLQAEDVAVYYCKQSYNLWTFGGGTKVEIK
notes: Humanized m301
B3: antibody m109-hu (antibody, V domains shown)
VH: EVQLVESGGGLVQPGGSLRLSCATSGFTFSDYYMYWVRQTPEKRLEWVAYISNGGGRTYYPDTVKGRFTISRDNAKNSLYLQMSRLRAEDTAVYYCARQKTNYGNYEEDYYAMGYWGQGTSVTVSS
VL: DIVLTQSPASLAVSLGQRATITCRASKSVSTSGYSYIHWYQQKPGQPPKLLIYLASNLESGVPARFSGSGSGTDFTLTINPVEEEDAATYYCQHSRELPLTFGAGTKLEIK
notes: Humanized m109
B4: antibody m107-hu (antibody, V domains shown)
VH: QVQLVQSGAEVKRPGASVKVSCKASGYTFSAYTIHWVKQRPGQGLEWIGYINPSNDFAKYIQKFKDKVTITADKSTSTAYMELNSLRSEDTAVYYCARVDYYGGSYRWYLDVWGQGTTVTVSS
VL: DIVLTQSPATLSLSPGERATLSCRASQSISNNLHWYQQKPGEAPRLLIKYTSQSISGIPARFSGSGSGTDFTLTISSLEPEDFAVYFCQQSNSWPIFTFGQGTKLEIK
notes: Humanized m107
B5: antibody m109 (antibody, V domains shown)
VH: B3 VH with Q3K, R19K, S78T, R87K, A88S, T91R, V93I
VL: B3 VL with T22S, T78N, N80H, E109D, I110L
B6: antibody m202 (antibody, V domains shown)
VH: QVQLQQPGTELVKPGASVKLSCKASGYTFTSYWMHWVKQRPGQGLEWIGNINPSNGDTNYNEKFKSKATLTVDKSSSTAYMQLSSLTSDDSAVYYCARATYGSYGYFDVWGTGTAVTVSS
VL: DIVLTQSPASLAMSLGKRATISCRASESVTIIGTNLIQWFQQKPGQPPKLLIYHASNLETGVPARFSGSGSRTDFTLTIDPVEEDDVAIYYCLQSRQIPRTFGGGTKLEIK
B7: antibody B (VHH)
VHH: QVQLVESGGGLVQPGGSLSLSCVASGFTFSSYAMRWVRQAPGKEPEWVAGINTGSEIVVYANSVRGRFAISRDNARDTLFLQMNSLKPEDTAVYYCATGLVSAEHDGIWGQGTQVTVSS
notes: Anti-PD-L1 alpaca nanobody
B8: antibody A (VHH)
VHH: QVQLVESGGGLVQAGGSLRLSCAASGRSFSSSGMGWFRQAPGKDREFVATINSSGGDTYYRDSVEGRFTTSRDNAKNTMSLQMNDLKPEDTAVYYCAAKEGGGPSSIPAIYDYWGQGTQVTVSS
notes: Anti-PD-L1 alpaca nanobody
B9: antibody E (VHH)
VHH: B8 VHH with R61A, Y111F
notes: Anti-PD-L1 alpaca nanobody
B10: antibody C (VHH)
VHH: EVQLVESGGGSVQTGGSLRLSCVASGRDFLTYGMGWFRQAPGKEREFVASINWSGSMTYYADSVKGRFTISRDNAKNTVYLQMNSLKPGDTAVYICAARRGAVTYASSNEYEHWGQGTQVTVSS
notes: Anti-PD-L1 alpaca nanobody
B11: antibody D (VHH)
VHH: B10 VHH with S11L, T14A, G16D, V23T
notes: Anti-PD-L1 alpaca nanobody
B12: antibody Bhu (VHH)
VHH: B7 VHH with L11V, S19R, V23A, E44G, P45L, A69T, A75S, F80Y, K87R, P88A
notes: Humanized anti-PD-L1 nanobody
B13: antibody Ahu (VHH)
VHH: B8 VHH with L11V, A14P, D44G, A75S, S80Y, D85S, K87R, P88A, Q119L
notes: Humanized anti-PD-L1 nanobody
B14: antibody D1hu (VHH)
VHH: B10 VHH with S11L, T14P, V23T, R45L, K87R, P88A, G89E
notes: Humanized anti-PD-L1 nanobody
B15: antibody Chu (VHH)
VHH: B10 VHH with S11L, T14P, V23A, E44G, P88A, G89E, Q119L
notes: Humanized anti-PD-L1 nanobody
B16: antibody D2hu (VHH)
VHH: B10 VHH with S11L, T14P, V23A, E44G, R45L, T78S, K87R, P88A, G89E
notes: Humanized anti-PD-L1 nanobody
B17: b202-H-Bhu-D2hu (bispecific antibody)
heavy: not shown
light: DIVLTQSPDSLAVSLGERATINCRASESVTIIGTNLIQWFQQKPGQPPKLLIYHASNLETGVPDRFSGSGSRTDFTLTISSLQAEDVAVYYCLQSRQIPRTFGGGTKVEIKRTVAAPSVFIFPPSDEQLKSGTASVVCLLNNFYPREAKVQWKVDNALQSGNSQESVTEQDSKDSTYSLSSTLTLSKADYEKHKVYACEVTHQGLSSPVTKSFNRGEC
notes: Tandem architecture and constant regions as noted for b301-H-Bhu-D2hu
B18: b202-L-Bhu (bispecific antibody)
heavy: not shown
light: DIVLTQSPDSLAVSLGERATINCRASESVTIIGTNLIQWFQQKPGQPPKLLIYHASNLETGVPDRFSGSGSRTDFTLTISSLQAEDVAVYYCLQSRQIPRTFGGGTKVEIKRTVAAPSVFIFPPSDEQLKSGTASVVCLLNNFYPREAKVQWKVDNALQSGNSQESVTEQDSKDSTYSLSSTLTLSKADYEKHKVYACEVTHQGLSSPVTKSFNRGECGGGGSGGGGSGGGGSGGGGSQVQLVESGGGVVQPGGSLRLSCAASGFTFSSYAMRWVRQAPGKGLEWVAGINTGSEIVVYANSVRGRFTISRDNSRDTLYLQMNSLRAEDTAVYYCATGLVSAEHDGIWGQGTQVTVSS
B19: b305-H-Bhu-D2hu (bispecific antibody)
heavy: not shown
light: DIQMTQSPSSLSASVGDRVTITCRASQEISGYLSWLQQKPGGAPKRLIYAASTLDSGVPSRFSGSRSGTDYTLTISSLQPEDFATYYCLQYASYPTCTFGGGTKVEIKRTVAAPSVFIFPPSDEQLKSGTASVVCLLNNFYPREAKVQWKVDNALQSGNSQESVTEQDSKDSTYSLSSTLTLSKADYEKHKVYACEVTHQGLSSPVTKSFNRGEC
notes: as for B17

T1 sequence (Q14392 20-662, chain 1 of 2): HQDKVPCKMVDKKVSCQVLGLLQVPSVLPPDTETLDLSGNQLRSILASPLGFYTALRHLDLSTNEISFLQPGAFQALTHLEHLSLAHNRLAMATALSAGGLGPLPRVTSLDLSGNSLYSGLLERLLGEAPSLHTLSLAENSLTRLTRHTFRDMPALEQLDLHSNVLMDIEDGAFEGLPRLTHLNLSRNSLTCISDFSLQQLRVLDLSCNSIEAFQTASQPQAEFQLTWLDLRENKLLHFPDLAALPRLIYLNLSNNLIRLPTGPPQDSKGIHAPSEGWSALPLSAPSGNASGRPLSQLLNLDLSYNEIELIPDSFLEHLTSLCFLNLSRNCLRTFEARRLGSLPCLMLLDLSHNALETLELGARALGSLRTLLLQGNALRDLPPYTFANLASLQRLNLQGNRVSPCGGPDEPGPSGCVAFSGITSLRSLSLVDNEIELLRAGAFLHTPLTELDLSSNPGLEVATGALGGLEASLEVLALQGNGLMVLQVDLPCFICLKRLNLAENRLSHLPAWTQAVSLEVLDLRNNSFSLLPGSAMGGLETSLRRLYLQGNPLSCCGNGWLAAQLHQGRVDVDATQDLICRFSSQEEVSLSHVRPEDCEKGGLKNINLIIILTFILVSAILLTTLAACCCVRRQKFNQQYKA
T1 sequence (P01137 30-390, chain 2 of 2): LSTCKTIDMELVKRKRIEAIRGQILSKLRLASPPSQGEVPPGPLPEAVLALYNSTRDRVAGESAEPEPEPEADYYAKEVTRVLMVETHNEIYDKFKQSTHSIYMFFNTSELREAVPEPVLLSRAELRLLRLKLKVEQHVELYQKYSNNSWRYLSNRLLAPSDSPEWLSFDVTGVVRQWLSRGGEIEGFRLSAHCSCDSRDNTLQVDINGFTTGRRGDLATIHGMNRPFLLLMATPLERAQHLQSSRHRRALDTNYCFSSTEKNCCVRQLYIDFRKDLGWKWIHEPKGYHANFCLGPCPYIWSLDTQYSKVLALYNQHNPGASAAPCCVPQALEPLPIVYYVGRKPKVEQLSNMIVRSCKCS
T3 sequence (Q9NZQ7 19-290): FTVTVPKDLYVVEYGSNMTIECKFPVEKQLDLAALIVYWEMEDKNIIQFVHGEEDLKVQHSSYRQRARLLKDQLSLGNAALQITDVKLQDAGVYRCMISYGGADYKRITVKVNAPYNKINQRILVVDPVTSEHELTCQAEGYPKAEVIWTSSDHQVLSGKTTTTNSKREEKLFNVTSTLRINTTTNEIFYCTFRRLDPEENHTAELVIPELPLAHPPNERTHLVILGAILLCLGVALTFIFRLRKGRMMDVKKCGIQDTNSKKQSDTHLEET

The first test addresses T1, GARP-TGF-β complex (293-GARP/TGFβ stably transfected cells) (UniProt Q14392 20-662; P01137 30-390).
T1 construct: whole, on cells; Complex of GARP and (latent) TGF-β on the cell surface; also called 293-GARP/TGFβ cell; 293F-GAPR/TGFβ/αvβ6 cells
As to the kind of experiment: FACS on 293-GARP/TGFβ cells.
For orientation: EC50 means the midpoint of the concentration-response curve. Read a low EC50 as an effect from little substance. The molecule B1 yielded an EC50 of 2.5 nM.

On to B2, for which the EC50 was determined as 4 nM.

Molecule B3 came in with an EC50 of over 5 nM.

B4 yielded an EC50 of 7.5 nM.

For a further test, the target named is T1, GARP-TGF-β complex (293-GARP/TGFβ …). As to the kind of experiment: FACS on 293-GARP/TGFβ cells. The source holds these as a separate data set.
Regarding B5, the EC50 is over 5 nM.

B6 came in with an EC50 of 2.7 nM.

In another test the target is T2, human transforming growth factor β1 (human, UniProt P01137 279-390).
T2 construct: Coated on the ELISA plate at 100 ng/well; also called hTGF-β1; TGF-β
T2 sequence (P01137 279-390 limits assumed): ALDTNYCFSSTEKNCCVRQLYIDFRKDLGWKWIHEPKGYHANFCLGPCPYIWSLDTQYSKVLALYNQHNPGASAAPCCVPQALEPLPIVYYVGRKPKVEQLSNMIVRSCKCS
As to the kind of experiment: ELISA, plate-coated hTGF-β1. In general terms: In an ELISA, binding on a coated surface is turned into a signal by an enzyme label.
In the case of B5, the half-maximal effective concentration (EC50) was under 1 nM.

B6 gave an EC50 of under 1 nM.

A further test addresses T3, human PD-L1 (human, UniProt Q9NZQ7 19-290).
T3 construct: whole, on cells; also called hPD-L1; PD-L1 antigen on MDA-MB-231 cells
As to the kind of experiment: FACS on MDA-MB-231 cells (endogenous PD-L1).
As to B7, the concentration for a half-maximal effect (EC50) is 0.031 nM.

Molecule B8 returned an EC50 of 0.089 nM.

B9: a half-maximal effect (EC50) was put at 0.053 nM. This EC50 is about 1.7-fold lower than that of the molecule before.

The molecule B10 registered a 50% effective concentration (EC50) of 0.042 nM.

The molecule B11 yielded a concentration giving a half-maximal response (EC50) of 0.039 nM.

A further test has as its target T3, human PD-L1. Briefly: FACS on MC38-hPD-L1 cells.
Consider B1, for which the binding result is reported as “no binding (tested: initial concentration 200 nM)”.

On to B2, for which the binding result was “no binding (tested: initial concentration 200 nM)”.

A further test concerns the target T3, human PD-L1. As to the kind of experiment: competitive FACS: blocks human-CD80-mFc binding to 293T-PD-L1 cells.
The IC50 is the midpoint of a concentration-inhibition curve. With B7, the half-maximal inhibitory concentration (IC50) stood at 3.35 nM. In other words, the single-digit nanomolar range.

As for B12, the IC50 is about 1.7 nM.

Molecule B8 returned an IC50 of 3.95 nM.

As to B13, the IC50 is about 1.8 nM.

In turn, B9 gave an IC50 of 2.98 nM.

Regarding B14, the concentration for half-maximal inhibition (IC50) was about 1.5 nM.

As for B10, the half-inhibitory concentration (IC50) was determined as 4.15 nM.

Consider B15, for which the IC50 was about 3.2 nM.

For the molecule B11, the 50% inhibitory concentration (IC50) stood at 4.76 nM.

For another test, the target named is T2, human transforming growth factor β1. Briefly: ELISA, plate-coated hTGF-β1. This is another data set of the same source.
Molecule B1 returned an EC50 of under 2 nM.

B2 yielded an EC50 of under 2 nM.

B3: a half-maximal effect (EC50) was put at 0.73 nM.

As to B4, the EC50 came to 7.5 nM.

Another test deals with PD-L1-Biotin (UniProt Q9NZQ7 19-238, limits assumed, biotin label (site not stated)). Briefly: competitive FACS: blocks PD-L1-Biotin binding to 293T-PD-1 cells.
Sequence of PD-L1-Biotin (Q9NZQ7 19-238 limits assumed): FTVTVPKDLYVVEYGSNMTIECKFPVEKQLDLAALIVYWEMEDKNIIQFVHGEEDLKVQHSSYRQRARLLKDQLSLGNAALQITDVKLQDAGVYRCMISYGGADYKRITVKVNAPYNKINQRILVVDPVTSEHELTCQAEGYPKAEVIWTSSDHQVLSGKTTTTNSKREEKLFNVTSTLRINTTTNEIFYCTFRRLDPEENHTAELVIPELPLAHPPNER
Molecule B7 displayed a 50% inhibitory concentration (IC50) of 2.08 nM.

For B12, the concentration for half-maximal inhibition (IC50) was 3.4 nM.

B8 yielded a half-inhibitory concentration (IC50) of 1.02 nM.

Molecule B13 came in with an IC50 of 4 nM.

Turning to B9, the half-maximal inhibitory concentration (IC50) was 2.54 nM.

B14 returned a concentration for half-maximal inhibition (IC50) of 2.6 nM.

Molecule B10 displayed an IC50 of 1.68 nM. This IC50 lies about 1.5-fold lower than the previous one.

Molecule B16 had a concentration for half-maximal inhibition (IC50) of 12 nM. Compared with the last molecule, the IC50 is about 7.1-fold higher.

Turning to B15, the IC50 is 1 nM.

Molecule B11 had a half-inhibitory concentration (IC50) of 2.1 nM. Against the preceding molecule, the IC50 is about 2.1-fold higher.

The target in the next test is T1, GARP-TGF-β complex (293-GARP/TGFβ …). As to the kind of experiment: FACS on 293-GARP/TGFβ cells. This is another data set of the same source.
B17 registered an EC50 of 1.5 nM.

Molecule B18 had a concentration for a half-maximal effect (EC50) of 1.6 nM.

B19 came in with an EC50 of 4.4 nM.

For the next test, the target named is T3, human PD-L1. As to the kind of experiment: FACS on PD-L1-expressing cells, similar method.
Regarding B12, the midpoint of the response, the EC50, lay at 0.18 nM.

B13 registered an EC50 of 0.051 nM. Against the preceding molecule, the EC50 is about 3.5-fold lower.

In turn, B14 yielded an EC50 of 0.18 nM.

Regarding B16, the half-maximal effective concentration (EC50) came to 0.29 nM.
